Reference: US9688760B2, “Anti-leukocyte adhesion for the mitigation of potential adverse events caused by CD3-specific binding domains” (AMGEN RESEARCH (MUNICH) GMBH, priority 2013, dated 2017)

Test system: HBMEC
Assay: In vitro flow chamber: T cell-rolling on HBMEC, long-term conditions
Assay type: cell-based, human
Settings: non-stimulated HBMEC, 45 min
Description: Human brain microvascular endothelial cells (HBMEC) (#1000, Sciencell Research Laboratories) or human umbilical vein endothelial cells (HUVEC) (#C-12200, Promocell) were used as endothelial cell-model. Cryopreserved HBMEC at passage 1 (>5×10^5 cells/ml) were first cultivated in fibronectin-coated Nunclon-treated 75 cm^2 cell culture flasks (#156499, Nunc) at 37° C. and 5% CO2 in a Heraeus Cytoperm 2 (Thermo Scientific) according to the manufacturer's instructions. Sub-cultivation of HBMEC was done with the Detach Kit (#C-41200, Promocell) consisting of HEPES-buffered balanced salt solution (#C-40000, Promocell), trypsin-EDTA solution (0.04%/0.03%) (#C-41000, Promocell) and trypsin neutralization solution (TNS, #C-41100, Promocell). Briefly, the medium was aspirated from the HBMEC-layer and cells were washed with 2 ml of HEPES-buffered balanced salt solution. Addition of 2 ml of trypsin-EDTA solution for 1-5 min at room temperature led to detachment of HBMEC from the flask bottom. Inactivation of trypsin-EDTA solution was performed by addition of 2 ml of trypsin neutralization solution to the cell suspension. Cells were centrifuged at 300 g for 4 min in a Heraeus Megafuge 40 (Thermo Scientific) and seeded at a cell density of 5×10^5 cells per gelatin-coated 75 cm^2 cell culture flask (#L7230, Biochrom). […]

B1: recombinant P-selectin: recombinant human P-selectin (#ADP3-050, R&D Systems) (protein)
chain: WTYHYSTKAYSWNISRKYCQNRYTDLVAIQNKNEIDYLNKVLPYYSSYYWIGIRKNNKTWTWVGTKKALTNEAENWADNEPNNKRNNEDCVEIYIKSPSAPGKWNDEHCLKKKHALCYTASCQDMSCSKQGECLETIGNYTCSCYPGFYGPECEYVRECGELELPQHVLMNCSHPLGNFSFNSQCSFHCTDGYQVNGPSKLECLASGIWTNKPPQCLAAQCPPLKIPERGNMTCLHSAKAFQHQSSCSFSCEEGFALVGPEVVQCTASGVWTAPAPVCKAVQCQHLEAPSEGTMDCVHPLTAFAYGSSCKFECQPGYRVRGLDMLRCIDSGHWSAPLPTCEAISCEPLESPVHGSMDCSPSLRAFQYDTNCSFRCAEGFMLRGADIVRCDNLGQWTAPAPVCQALQCQDLPVPNEARVNCSHPFGAFRYQSVCSFTCNEGLLLVGASVLQCLATGNWNSVPPECQAIPCTPLLSPQNGTMTCVQPLGSSSYKSTCQFICDEGYSLSGPERLDCTRSGRWTDSPPMCEAIKCPELFAPEQGSLDCSDTRGEFNVGSTCHFSCDNGFKLEGPNNVECTTSGRWSATPPTCKGIASLPTPGVQCPALTTPGQGTMYCRHHPGTFGFNTTCYFGCNAGFTLIGDSTLSCRPSGQWTAVTPACRAVKCSELHVNKPIAMNCSNLWGNFSYGSICSFHCLEGQLLNGSAQTACQENGHWSTTVPTCQAGPLTIQEALTYFGGAVASTIGLIMGGTLLALLRKRFRQKDDGKCPLNPHSHLGTYGVFTNAAFDPSP
T cells pre-incubated with 5 μg/ml recombinant P-selectin, +AMG 103 10 ng/ml
  mean T cell-rolling velocity±SD: 402±93 μm/sec
−AMG 103, +rec. P-selectin 5 μg/ml
  mean T cell-rolling velocity±SD: 384±70 μm/sec
